According to US12723246 (UNIVERSITY OF MASSACHUSETTS, dated 2026):

Molecular target: the molecule itself
Experiment: negative-stain EM of the precipitate formed after tag cleavage; self-assembly into capsid-like structures
Source text: Given that dArc Iresembles a Gag protein, and that retroviral Gag proteins have the ability to auto-assemble into capsids, the precipitate was examined at the EM level by negative staining. The presence of round structures of about 39.3±5.2 nm was seen, which resembled HIV capsids. FIGS. 8A and 8B.

B1: purified dArc1 protein, bacterially produced, after cleavage of the HIS-MBP tag (other, Drosophila, UniProt Q7K1U0 1-254, looked up)
chain: MAQLTQMTNEQLRELIEAVRAAAVGAAGSAAAAGGADASRGKGNFSACTHSFGGTRDHDVVEEFIGNIETYKDVEGISDENALKGISLLFYGMASTWWQGVRKEATTWKEAIALIREHFSPTKPAYQIYMEFFQNKQDDHDPIDTFVIQKRALLAQLPSGRHDEETELDLLFGLLNIKYRKHISRHSVHTFKDLLEQGRIIEHNNQEDEEQLATAKNTRGSKRTTRCTYCSFRGHTFDNCRKRQKDRQEEQHEE
notes: Self-assembles into capsid-like structures of about 39.3±5.2 nm; also called His-MBP-dArc1 (before cleavage)
binding result: binds
